Measured values reported in patent publication US20090053203A1.

Biological target: receptor for advanced glycated end products (RAGE) (human) (UniProt Q15109)
Assay: cell-based or functional assay
Details: scale: relative to saline-treated controls

Sequence of receptor for advanced glycated end products (RAGE) (human) (Q15109 23-404): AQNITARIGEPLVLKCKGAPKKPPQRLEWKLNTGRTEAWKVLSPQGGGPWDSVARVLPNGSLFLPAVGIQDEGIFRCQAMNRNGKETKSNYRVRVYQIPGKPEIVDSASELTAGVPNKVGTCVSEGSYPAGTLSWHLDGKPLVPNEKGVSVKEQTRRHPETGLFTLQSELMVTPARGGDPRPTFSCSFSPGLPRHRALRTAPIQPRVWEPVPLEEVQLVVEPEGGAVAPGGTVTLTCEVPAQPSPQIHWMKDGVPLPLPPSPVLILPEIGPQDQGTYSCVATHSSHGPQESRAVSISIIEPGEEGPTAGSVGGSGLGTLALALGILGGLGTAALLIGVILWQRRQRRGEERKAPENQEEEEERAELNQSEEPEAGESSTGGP

Phospbo-PKCa/bII (T638/641) (ELISA, 293 kidney cells, 4 hr): 1.52 | Phospho-ATF2 (T71) (ELISA, 293 kidney cells, 4 hr): 1.61 | Phospho-Akt (S473) (ELISA, 293 kidney cells, 4 hr): 1.92 | Phospho-Akt (T308) (ELISA, 293 kidney cells, 4 hr): 1.06 | Phospho-ERK (T202/Y204) (ELISA, 293 kidney cells, 4 hr): 1 | Phospho-IRS1 (S307) (ELISA, 293 kidney cells, 4 hr): 1.56 | Phospho-IRS2 (S731) (ELISA, 293 kidney cells, 4 hr): 1.03 | Phospho-JNK (T183/Y185) (ELISA, 293 kidney cells, 4 hr): 1.38 | Phospho-PKCmu (S916) (ELISA, 293 kidney cells, 4 hr): 0.95 | Total Akt1 (ELISA, 293 kidney cells, 4 hr): 1.27 | Total Akt2 (ELISA, 293 kidney cells, 4 hr): 0.81 | Total IRS-1 (ELISA, 293 kidney cells, 4 hr): 1.07 | Total IRS-2 (ELISA, 293 kidney cells, 4 hr): 1.47 | Total collagen-IV (ELISA, 293 kidney cells, 4 hr): 1.34
Substance: glycated hemoglobin (ligand)
